We go through one protein from paper PMC7617739, “Seo1p, a high-affinity, plasma membrane transporter of the γ-Glu-met dipeptide in yeasts and fungi” (The Journal of Biological Chemistry, 2025).

Substrate in this data set: CSCC[C@H](NC(=O)CC[C@H](N)C(=O)O)C(=O)O
Kind of data set: cells, lysate or membranes.

B1: Seo1p (Saccharomyces cerevisiae S288C) (protein)
chain: MYSIVKEIIVDPYKRLKWGFIPVKRQVEDLPDDLNSTEIVTISNSIQSHETAENFITTTSEKDQLHFETSSYSEHKDNVNVTRSYEYRDEADRPWWRFFDEQEYRINEKERSHNKWYSWFKQGTSFKEKKLLIKLDVLLAFYSCIAYWVKYLDTVNINNAYVSGMKEDLGFQGNDLVHTQVMYTVGNIIFQLPFLIYLNKLPLNYVLPSLDLCWSLLTVGAAYVNSVPHLKAIRFFIGAFEAPSYLAYQYLFGSFYKHDEMVRRSAFYYLGQYIGILSAGGIQSAVYSSLNGVNGLEGWRWNFIIDAIVSVVVGLIGFYSLPGDPYNCYSIFLTDDEIRLARKRLKENQTGKSDFETKVFDIKLWKTIFSDWKIYILTLWNIFCWNDSNVSSGAYLLWLKSLKRYSIPKLNQLSMITPGLGMVYLMLTGIIADKLHSRWFAIIFTQVFNIIGNSILAAWDVAEGAKWFAFMLQCFGWAMAPVLYSWQNDICRRDAQTRAITLVTMNIMAQSSTAWISVLVWKTEEAPRYLKGFTFTACSAFCLSIWTFVVLYFYKRDERNNAKKNGIVLYNSKHGVEKPTSKDVETLSVSDEK
Consider B1, for which the Km was determined as 48 µM.
